± gives the standard deviation of the averaged measurements.
Tests used:
[1] = test system: Saccharomyces cerevisiae; assay: protein stability index of tFT-peptide fusion (C-terminal peptide) (PSI (0-1 scale)); higher = more stable (slower turnover)
Experimental: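 MPS profiling in S. cerevisiae of the tFT-X12 degron library: putative degron peptides plus stable controls, 12 aa, fused to the C-terminus of a sfGFP-mCherry timer. Cells are FACS-sorted into 8 mCherry/sfGFP bins and deep-sequenced. PSI runs from 0 (unstable) to 1 (stable). Backgrounds are wild type, das1Δ and doa10Δ at 30 °C, and wild type, das1Δ, cdc34-1 and cdc53-1 at 37 °C; 2-3 technical replicates each.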

[2] = test system: Saccharomyces cerevisiae; assay: as above; details: genetic background: wild type; temperature: 30 C
[3] = genetic background: cdc34-1, temperature: 37 C
[4] = genetic background: cdc53-1, temperature: 37 C
[5] = genetic background: das1 deletion, temperature: 30 C
[6] = genetic background: das1 deletion, temperature: 37 C
[7] = genetic background: doa10 deletion, temperature: 30 C
[8] = genetic background: wild type, temperature: 30 C
[9] = genetic background: wild type, temperature: 37 C
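Note: PSI is a weighted mean of sequencing reads over stability bins, variants kept only with over 10 reads, mCherry proximal and sfGFP distal, peptide attached via GGGS linker.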

| Sequence | protein stability index [1, 3] | protein stability index [1, 4] | protein stability index [1, 5] | protein stability index [1, 6] | protein stability index [1, 7] | protein stability index [1, 8] | protein stability index [1, 9] | protein stability index [2] |
| --- | --- | --- | --- | --- | --- | --- | --- | --- |
| GMMLLRFIIRWY | 0.0773 ± 0.026 | 0.15 ± 0.027 | 0.141 ± 0.04 | 0.268 ± 0.0083 | 0.138 ± 0.0027 | 0.134 ± 0.03 | 0.212 ± 0.0061 | 0.173 ± 0.045 |
| VFCLPISAPPLH | 0.679 ± 0.0083 | 0.739 ± 0.022 | 0.642 ± 0.023 | 0.727 ± 0.0031 | 0.626 ± 0.02 | 0.635 ± 0.019 | 0.7027 ± 0.0031 | 0.685 ± 0.023 |
| AIPRWLALLVAH | 0.32 ± 0.012 | 0.381 ± 0.0079 | 0.29 ± 0.032 | 0.4508 ± 0.0036 | 0.13 ± 0.018 | 0.159 ± 0.022 | 0.238 ± 0.0066 | 0.241 ± 0.0097 |
| DFHLPWPVALVW | 0.134 ± 0.02 | 0.144 ± 0.016 | 0.217 ± 0.018 | 0.277 ± 0.0039 | 0.188 ± 0.0067 | 0.208 ± 0.026 | 0.24 ± 0.013 | 0.387 ± 0.039 |
| LHFHIYLIISPF | 0.117 ± 0.0026 | 0.137 ± 0.022 | 0.2 ± 0.02 | 0.311 ± 0.0072 | 0.238 ± 0.011 | 0.186 ± 0.034 | 0.261 ± 0.01 | 0.294 ± 0.012 |
| SIFFLVPLVFLS | 0.4422 ± 0.0014 | 0.532 ± 0.027 | 0.408 ± 0.035 | 0.584 ± 0.015 | 0.134 ± 0.0055 | 0.141 ± 0.019 | 0.216 ± 0.055 | 0.214 ± 0.043 |
| VSWSVSALIYLK | 0.169 ± 0.017 | 0.1 ± 0.026 | 0.233 ± 0.039 | 0.319 ± 0.014 | 0.572 ± 0.01 | 0.277 ± 0.034 | 0.295 ± 0.015 | 0.35 ± 0.0075 |
| YVLWFVCGVGFV | 0.352 ± 0.015 | 0.462 ± 0.031 | 0.29 ± 0.045 | 0.4768 ± 0.0011 | 0.262 ± 0.024 | 0.298 ± 0.02 | 0.453 ± 0.028 | 0.392 ± 0.041 |
| SIPVWTIELFAT | 0.555 ± 0.022 | 0.627 ± 0.012 | 0.428 ± 0.026 | 0.6153 ± 0.0042 | 0.335 ± 0.022 | 0.368 ± 0.035 | 0.537 ± 0.039 | 0.469 ± 0.037 |
| VDFCLLFLLLLV | 0.427 ± 0.041 | 0.442 ± 0.0072 | 0.349 ± 0.034 | 0.482 ± 0.032 | 0.425 ± 0.027 | 0.331 ± 0.02 | 0.462 ± 0.014 | 0.432 ± 0.025 |
| WGFSVRFVLSVF | 0.0576 ± 0.004 | 0.145 ± 0.03 | 0.124 ± 0.029 | 0.2407 ± 0.0016 | 0.05 ± 0.014 | 0.0463 ± 0.02 | 0.115 ± 0.024 | 0.12 ± 0.017 |
| LVSWAWIWIFVF | 0.251 ± 0.057 | 0.354 ± 0.022 | 0.253 ± 0.039 | 0.417 ± 0.0085 | 0.171 ± 0.0065 | 0.194 ± 0.022 | 0.32239 ± 2.4e-05 | 0.226 ± 0.054 |
| ISSYKFLRIVLV | 0.384 ± 0.01 | 0.435 ± 0.0053 | 0.335 ± 0.026 | 0.509 ± 0.022 | 0.131 ± 0.031 | 0.149 ± 0.032 | 0.191 ± 0.0035 | 0.189 ± 0.0046 |
| EQMRRYILVSYV | 0.522 ± 0.021 | 0.609 ± 0.025 | 0.427 ± 0.019 | 0.5998 ± 0.0036 | 0.198 ± 0.0082 | 0.243 ± 0.02 | 0.4255 ± 0.0019 | 0.352 ± 0.033 |
| LFWTWVLVGVSV | 0.1462 ± 0.0014 | 0.176 ± 0.029 | 0.192 ± 0.022 | 0.283 ± 0.013 | 0.127 ± 0.0013 | 0.164 ± 0.015 | 0.263 ± 0.033 | 0.256 ± 0.028 |
| FLLLDFMLVSLV | 0.498 ± 0.015 | 0.5175 ± 0.0029 | 0.404 ± 0.022 | 0.543 ± 0.011 | 0.371 ± 0.029 | 0.412 ± 0.036 | 0.521 ± 0.037 | 0.483 ± 0.011 |
| LFRNIFLFVFLI | 0.267 ± 0.029 | 0.229 ± 0.0072 | 0.362 ± 0.021 | 0.468 ± 0.012 | 0.334 ± 0.0071 | 0.241 ± 0.02 | 0.307 ± 0.016 | 0.306 ± 0.029 |

| Sequence | protein stability index [1, 3] | protein stability index [1, 4] | protein stability index [1, 5] | protein stability index [1, 6] | protein stability index [1, 7] | protein stability index [1, 8] | protein stability index [1, 9] | protein stability index [2] |
| --- | --- | --- | --- | --- | --- | --- | --- | --- |
| SFHTFFCPFFIL | 0.53 ± 0.051 | 0.6678 ± 0.0037 | 0.645 ± 0.038 | 0.713 ± 0.032 | 0.189 ± 0.0043 | 0.168 ± 0.023 | 0.288 ± 0.022 | 0.205 ± 0.024 |
| VCVYLVSLPYLA | 0.451 ± 0.015 | 0.462 ± 0.025 | 0.39 ± 0.026 | 0.522 ± 0.021 | 0.239 ± 0.018 | 0.232 ± 0.03 | 0.381 ± 0.011 | 0.303 ± 0.035 |
| GKVGGRMWVWRV | 0.592 ± 0.041 | 0.73 ± 0.015 | 0.63 ± 0.013 | 0.72579 ± 0.00022 | 0.116 ± 0.014 | 0.129 ± 0.019 | 0.2406 ± 0.0022 | 0.257 ± 0.0031 |
| RWRDGVAWVVVC | 0.254 ± 0.011 | 0.314 ± 0.024 | 0.289 ± 0.032 | 0.452 ± 0.0084 | 0.0897 ± 0.019 | 0.098 ± 0.0042 | 0.0954 ± 0.0098 | 0.143 ± 0.025 |
| LSYRFVFRFLLF | 0.543 ± 0.067 | 0.592 ± 0.0035 | 0.525 ± 0.013 | 0.573 ± 0.014 | 0.39 ± 0.017 | 0.372 ± 0.027 | 0.472 ± 0.0083 | 0.421 ± 0.0094 |
| CYTGYMYKLLVG | 0.507 ± 0.054 | 0.547 ± 0.01 | 0.48 ± 0.031 | 0.59019 ± 0.00036 | 0.2458 ± 0.00076 | 0.243 ± 0.027 | 0.423 ± 0.015 | 0.346 ± 0.027 |
| VFGSRCLLTVVV | 0.472 ± 0.0098 | 0.477 ± 0.023 | 0.367 ± 0.032 | 0.5185 ± 0.0017 | 0.336 ± 0.018 | 0.358 ± 0.043 | 0.504 ± 0.0071 | 0.438 ± 0.043 |
| SHPFIRSLVFLA | 0.43 ± 0.015 | 0.6729 ± 0.0026 | 0.629 ± 0.008 | 0.721 ± 0.02 | 0.0816 ± 0.008 | 0.0711 ± 0.0057 | 0.0908 ± 0.014 | 0.103 ± 0.037 |
| FYIWFFRLIYFF | 0.421 ± 0.043 | 0.4414 ± 0.0014 | 0.402 ± 0.039 | 0.536 ± 0.019 | 0.344 ± 0.0048 | 0.331 ± 0.01 | 0.453 ± 0.012 | 0.408 ± 0.014 |
| VSSFLLPFCLLF | 0.65 ± 0.025 | 0.689 ± 0.029 | 0.645 ± 0.0076 | 0.714 ± 0.025 | 0.654 ± 0.021 | 0.641 ± 0.016 | 0.6753 ± 0.0013 | 0.51 ± 0.1 |
| FFFFSVHLSFLD | 0.122 ± 0.0052 | 0.295 ± 0.018 | 0.178 ± 0.04 | 0.365 ± 0.029 | 0.179 ± 0.0073 | 0.176 ± 0.028 | 0.305 ± 0.024 | 0.31 ± 0.013 |
| LCFVFVLGFFAF | 0.379 ± 0.058 | 0.4836 ± 0.0019 | 0.349 ± 0.031 | 0.488 ± 0.0085 | 0.319 ± 0.011 | 0.334 ± 0.012 | 0.501 ± 0.022 | 0.421 ± 0.017 |
| WRAFVFYHHFLD | 0.665 ± 0.042 | 0.718 ± 0.028 | 0.655 ± 0.039 | 0.699 ± 0.014 | 0.329 ± 0.029 | 0.363 ± 0.029 | 0.5863 ± 0.0019 | 0.441 ± 0.015 |
| GRAVGLANFTIK | 0.659 ± 0.02 | 0.756 ± 0.033 | 0.641 ± 0.026 | 0.735 ± 0.015 | 0.65 ± 0.044 | 0.68 ± 0.042 | 0.7006 ± 0.0042 | 0.129 ± 0.012 |
| LFLVVVVRAGGF | 0.144 ± 0.042 | 0.288 ± 0.058 | 0.214 ± 0.03 | 0.4065 ± 0.0012 | 0.187 ± 0.0076 | 0.208 ± 0.022 | 0.382 ± 0.045 | 0.293 ± 0.0094 |
| YVFSPWSCWASV | 0.366 ± 0.019 | 0.396 ± 0.0044 | 0.416 ± 0.0081 | 0.361 ± 0.0059 | 0.4213 ± 0.00065 | 0.4048 ± 0.0027 | 0.351 ± 0.015 | 0.423 ± 0.015 |

Source: the supplement of paper PMC10724198
